Experimental data as given in patent publication US20180163180A1, “METHOD OF ENHANCING SOMATIC CELL REPROGRAMMING WITH THE ACETYLLYSINE READER BRD3R” (THE UAB RESEARCH FOUNDATION, INC ., priority 2015, published 2018).

Tests used:
BJ cells [1] = test: Reprogramming of human fibroblasts scored by TRA-1-60+ colonies/clusters; assay type: cell-based; conditions: for reprogramming activity (TRA-1-60+ colonies): used with 3F in BJ cells, compared to OSK-GFP control
Description: Briefly (FIG. 1A), 2×10^4 of BJ cells were seeded in each well of a 24-well plates. The second day, fibroblasts were transduced with OCT4 (10 MOI), SOX2 (5 MOI), KLF4 (5 MOI) along with 250 μl of individual kinase viral supernatant freshly packaged in one well of a 6-well plate. Twenty-two cDNAs were evaluated in one 24-well plate. One well is OSK control, and one well of cells is transduced with OSK plus 250 μl of GFP viral supernatant as a second control. Virus was removed next day with fresh fibroblast medium. Forty-eight hours after transduction, fibroblasts were transferred from one well into a 60-mm dish for continued reprogramming. The next day of re-seeding, fibroblast medium was replaced with E7 medium (E8 minus TGF beta) plus 100 μM of sodium butyrate. From day 18 of reprogramming on, E8 media was used. On day 25 of reprogramming, reprogramming dishes were stained for ALP or TRA-1-60 markers.
• Concentration of virus: The reprogramming viruses (OCT4, SOX2, KLF4, MYC and BET members) were concentrated before use except for library viruses. The lentiviral supernatant was centrifuged at 3,000×g for 10 mins at 4° C. to remove the cell debris. Thirty ml of the viral supernatant was then transferred into each 50-ml tube. 7 ml of 50% PEG-6000 stock solution (final concentration of 8.5%) and 4.1 ml of 4 M NaCl stock solution was added to each tube (final concentration of 0.4 M). The virus mixture was stored at 4° C. for 3-5 h.
• Cell culture and reprogramming: Human fibroblast cells (BJ ATCC CRL-2522®) were cultured in fibroblast medium: DMEM, 10% heat-inactivated FBS, 0.1 mM 2-mercaptoethanol, 100 U/ml penicillin, 100 μg/ml streptomycin, 0.1 mM MEM NEAA and 4 ng/ml human bFGF. For reprogramming, seed BJ cells into 24-well plate at 2×10^4 cells/well. Twenty-four hours after plating, pre-mix the OSK (OCT4, 10 MOI; SOX2, 5 MOI and KLF4, 5 MOI) viruses (shown in FIGS. 6B-6D, SEQ ID NO: 58-60, respectively), and add the OSK virus along with 250 μl supernatant of individual kinase virus into respective wells. Incubate overnight. Next morning, remove viruses by replacing virus-containing medium with fresh fibroblast medium. Twenty-four hours after transduction, the cells were re-seeded from one well into one matrigel-coated 60-mm dish. Next day, replace fibroblast medium with reprogramming media (E7 plus sodium butyrate at 100 μM). On 18 day, start to use E8 media. On day 25 of reprogramming, stain the reprogramming cells for alkaline phosphatase or TRA-1-60.

[2] = biological target: T1, tetra-acetylated H4 (H4K5/8/12/16Ac) (Homo sapiens, UniProt P62805); test: Histone peptide pull-down assay; assay type: binding; conditions: lysates of human fibroblasts overexpressing BRD3R or BRD3; western with BRD3 antibody
T1 construct: Histone tails used for peptide pull-down experiments; Peg-biotin (chemical label); incubated with lysate of human BJ fibroblasts transduced with BRD3R or BRD3 virus
Description: • Histone peptide pull-down assay: H3 or H4 histone tails with 8 different acetylation modifications were evaluated for binding with BRD3R and BRD3. One unmodified tail for each histone was used for negative control.
Human BJ fibroblasts were transduced with BRD3 or BRD3R viruses. Three days post-transduction, cells were lysed by non-denaturing lysis buffer (20 mM HEPES pH 7.9, 150 mM NaCl, 1 mM MgCl2, 0.5% NP40, 10 mM NaF, 0.2 mM NaVO4, 10 mM β-glycerol phosphate, 5% glycerol, 1 mM DTT, 1 mM PMSF and protease inhibitors). Twenty μg of the cell lysates were incubated with 1 μg biotinylated peptide in 300 μl binding buffer (50 mM Tris pH 7.5, 150 mM NaCl, 0.1% NP-40, 1 mM PMSF and protease inhibitors) at 4° C. for overnight. The next day, 30 μl of Dynabeads M-280 Streptavidin was added into each sample (Invitrogen, 11205D). The mixture of proteins, antibodies and beads were further incubated with gentle rotation at 4° C. for 1 h. The beads were then washed with binding buffer three times. The bound proteins were resuspended in 60 μl of 2× SDS sample buffer. The pull-down proteins were analyzed by western using antibody of BRD3 (Proteintech, 11859-1-AP). Two micrograms of cell lysates were loaded as input control. For semi-quantification, band density was normalized to the corresponding inputs.

BJ cells [3] = test: Sensitivity test of the optimized small-vessel reprogramming protocol (ALP staining); assay type: cell-based, human; conditions: n=3
Source text: • Optimization of screening protocol: Several strategies to make the screening of cDNA library more efficient and sensitive were used. First, the lentiviral reprogramming vector was modified so that it is more efficient and consistent in reprogramming human cells. This was achieved by using EF1a promoter and co-expression of GFP, which makes titration of viral vectors easier and faster. Second, the efficient Gateway cloning was used to transfer the human kinase library onto the modified lentiviral destination vector. 24 randomly selected of the 89 cloned cDNAs were sequenced, and verified precise cloning for all of the 24 genes. Third, a protocol to simultaneously package 24×n individual transgene viruses in individual wells of 6-well plates was established. The kinase virus was not concentrated and the supernatant directly used in screening protocol. Almost 100% of transduction of BJ cells in one well of a 24-well plate with 250 μl of supernatant using GFP reporter construct on the same destination vector (FIGS. 6J and 6K) was achieved. […] To test the sensitivity of the new screening protocols, the reprogramming activities of two established reprogramming factors: NANOG and LIN28, were evaluated. […]
Briefly (FIG. 1A), 2×10^4 of BJ cells were seeded in each well of a 24-well plates. […] Twenty-two cDNAs were evaluated in one 24-well plate. […]

BRD3R mRNA = test: Knockdown of BRD3R mRNA by shRNA (RT-qPCR); assay type: cell-based, human
Description: • shRNA cloning: BRD3R shRNAs at XbaI and HpaI sites on the shRNA vector PLVH-U6-EF1a-AcGFP were cloned. Correct cloning was verified by sequencing. An shRNA targeting the firefly luciferase was used as a control.
• RT-qPCR: Cells were harvested with Trizol reagent and stored at −80° C. until use. Total RNA was extracted using the Direct-zol™ Miniprep kit (R2052). cDNA was prepared using the M-MLV reverse transcriptase (cat #28025-013) per manufacturer's instruction. Quantitative PCR was performed on ViiA 7 Real-time PCR system (Applied Biosystem) using SYBR-Green Master PCR mix (Clontech, Cat #639676) in triplicates. All quantifications were normalized to an endogenous GAPDH control.

Molecule: BRD2: BET subfamily bromodomain protein
- reprogramming activity (TRA-1-60+ colonies) (BJ cells [1]): none did

Molecule: BRD3: canonical BRD3 (NP_031397; 726 aa, SEQ ID NO: 45), BET bromodomain protein
- reprogramming activity (TRA-1-60+ colonies) (BJ cells [1]): none did
- binding to H4K5/8/12/16Ac peptide [2]: weaker than BRD3R

Molecule: NANOG: established reprogramming factor [reference compound]
- increase in reprogramming efficiency (BJ cells [3]): 5.1 ×

B1: BRD3R shRNA: shRNA that specifically targets BRD3R (SEQ ID NO: 42 and 43) (nucleic acid)
chain 1: CTAGGAACCTCTGTAATTGTTTCCTGGCTCGAGCCAGGAAACAATTACAGAGGTTCTTTTTT
chain 2: AAAAAAGAACCTCTGTAATTGTTTCCTGGCTCGAGCCAGGAAACAATTACAGAGGTTC
- impairment of reprogramming (BJ cells [1]; BRD3R knockdown by shRNA, TRA-1-60 staining): 58%
- knockdown of BRD3R mRNA (BRD3R mRNA): significant knockdown

B2: LIN28: established reprogramming factor (protein, UniProt Q9H9Z2 2-209, looked up)
Protein lin-28 homolog A: GSVSNQQFAGGCAKAAEEAPEEAPEDAARAADEPQLLHGAGICKWFNVRMGFGFLSMTARAGVALDPPVDVFVHQSKLHMEGFRSLKEGEAVEFTFKKSAKGLESIRVTGPGGVFCIGSERRPKGKSMQKRRSKGDRCYNCGGLDHHAKECKLPPQPKKCHFCQSISHMVASCPLKAQQGPSAQGKPTYFREEEEEIHSPTLLPEAQN
- increase in reprogramming efficiency (BJ cells [3]): 2.4 ×
